Source: the supplement of paper PMC11136658

Test system: peptide library, one residue held at a place counted from the Y acceptor
Test: relative phosphorylation of the sub-library (ratio to the mean residue at this position); higher = residue favoured
Summary of the method: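 Biotinylated Tyr-centred peptide library mixtures, each fixing one residue at one position from −5 to +5, were incubated with purified recombinant kinases in 384-well plates for 90 min with 50 μM ATP plus γ-32P-ATP. Streptavidin membranes captured the peptides, which were rinsed and quantified by phosphorimaging and ImageQuant. At each position, intensities were divided by the sum of the 18 randomized residues (16 for the Ser/Thr-free library) and multiplied by that number. Each value is phosphorylation relative to the mean randomized residue.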

Sequence of TESK1, construct: aa1-345, human (Q15569 1-345, looked up): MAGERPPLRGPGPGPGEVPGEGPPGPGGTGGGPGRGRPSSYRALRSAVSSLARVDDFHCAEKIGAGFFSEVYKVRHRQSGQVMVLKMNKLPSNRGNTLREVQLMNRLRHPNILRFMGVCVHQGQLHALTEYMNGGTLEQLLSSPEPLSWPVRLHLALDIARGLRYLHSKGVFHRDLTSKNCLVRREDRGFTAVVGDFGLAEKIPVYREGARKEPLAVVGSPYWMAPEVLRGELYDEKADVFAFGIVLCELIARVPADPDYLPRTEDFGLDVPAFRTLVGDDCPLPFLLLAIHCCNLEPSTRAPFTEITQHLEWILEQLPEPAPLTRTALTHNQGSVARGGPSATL

TESK1, construct: aa1-345, human (from UniProt Q15569)
relative phosphorylation
Settings	at +1	at +2	at +3	at +4	at +5	at -1	at -2	at -3	at -4	at -5
A fixed	0.921	0.778	0.879	0.762	0.876	0.971	0.967	0.874	0.973	0.938
D fixed	0.992	0.998	0.881	0.902	0.794	0.977	0.822	0.931	0.858	0.85
E fixed	0.876	0.917	0.871	0.854	0.839	0.953	0.833	0.776	0.792	0.742
F fixed	0.935	1.11	0.936	0.966	0.869	0.778	0.911	0.926	0.984	0.883
G fixed	0.887	0.899	0.928	1.03	0.915	1	1.09	1.11	1.13	1.05
H fixed	1.01	1.09	1.06	1.07	1.17	0.962	0.976	0.915	0.949	0.975
I fixed	0.796	0.626	0.682	0.781	0.734	0.774	0.952	0.79	0.823	0.861
K fixed	1.13	1.27	1.23	1.3	1.15	1.18	1.34	1.25	1.26	1.35
L fixed	0.81	0.812	0.783	0.913	0.807	0.831	0.92	0.918	0.816	0.862
M fixed	0.76	0.796	0.831	0.928	0.841	0.835	0.81	0.846	0.869	0.82
N fixed	1.05	1.16	1.11	0.978	0.964	1.17	1.01	0.971	0.921	0.964
P fixed	1.02	1.09	1.15	1.28	1.05	1.26	1.07	1.36	1.16	1.1
Q fixed	1.09	1.09	1.02	1.09	0.929	1	0.842	1.04	0.891	0.831
R fixed	1.18	1.25	1.23	1.19	1.27	1.26	1.27	1.29	1.2	1.27
V fixed	0.817	0.69	0.72	0.764	0.713	0.743	0.946	0.864	0.875	0.881
W fixed	1.72	1.44	1.69	1.19	2.09	1.29	1.24	1.14	1.5	1.62
pThr fixed	0.988	0.893	0.765	0.809	0.615	1.05	0.932	0.934	0.929	0.776
pTyr fixed	0.746	0.819	0.738	0.714	0.627	0.861	0.798	0.896	0.669	0.711
